From PMC11727178, “Computer-Aided Design to Improve the Thermal Stability of Rhizomucor miehei Lipase” (Foods, 2024)
Changes are numbered by the printed parent chain. In names and notes the source's numbering stands.

Substrate: CCCCCCCCCCCC(=O)Oc1ccc([N+](=O)[O-])cc1
Assay: p-nitrophenol release, Michaelis-Menten
Assay type: biochemical, Rhizomucor miehei

B1: Rhizomucor miehei lipase (RML) (Rhizomucor miehei) (protein)
chain: VPIKRQSNSTVDSLPPLIPSRTSAPSSSPSTTDPEAPAMSRNGPLPSDVETKYGMALNATSYPDSVVQAMSIDGGIRAATSQEINELTYYTTLSANSYCRTVIPGATWDCIHCDATEDLKIIKTWSTLIYDTNAMVARGDSEKTIYIVFRGSSSIRNWIADLTFVPVSYPPVSGTKVHKGFLDSYGEVQNELVATVLDQFKQYPSYKVAVTGHSLGGATALLCALDLYQREEGLSSSNLFLYTQGQPRVGDPAFANYVVSTGIPYRRTVNERDIVPHLPPAAFGFLHAGEEYWITDNSPETVQVCTSDLETSDCSNSIVPFTSVLDHLSYFGINTGLCT
B1 gave a Km (at the enzyme's optimal conditions (optimum 45 °C)) of 92 µM.

B2: Rhizomucor miehei lipase (RML) (Rhizomucor miehei; E324I/N214M/N358M) (protein)
chain: B1 chain with N190M, E300I, N334M
For B2, the Km (at the enzyme's optimal conditions (optimum 55 °C)) was 31.75 µM.
